The record followed here is US20220289857A1.

“And” between values parts separate entries of the source, which are not always exact repeats. Equal entries are not always repeated.

Test [1] deals with His-SUMO-huFn14 (soluble human Fn14 aa 28-75 with N-terminal 6xHis-SUMO tag) (human). Kind of test: SPR Biacore T200; His-SUMO-huFn14 amine-coupled, Fab analyte; 1:1 fit. On the technique in general: SPR reads the build-up and loss of mass on a sensor chip optically.
In test [2] the target is cynomolgus macaque Fn14-GST (cynomolgus macaque (Macaca fascicularis)). Nature of the test: SPR Biacore T200; cyno Fn14-GST captured by anti-GST, Fab analyte; 1:1 fit.
The target is the same in test [3]. Nature of the test: SPR Biacore T200; cyno Fn14-GST captured by anti-GST, Fab analyte; average of two runs.
Test [4] has as its target His-SUMO-huFn14 (soluble human Fn14 aa 28-75 with N-terminal 6xHis-SUMO tag) (human). Kind of test: SPR Biacore T200; His-SUMO-huFn14 amine-coupled, Fab analyte; average of two runs.
Test [5] has as its target human Fn14 (full length) on cells (human) (UniProt Q9NP84). Kind of test: cell-based or functional assay.

Chain of cynomolgus macaque Fn14-GST (cynomolgus macaque (Macaca fascicularis)) (chain, as listed by the source): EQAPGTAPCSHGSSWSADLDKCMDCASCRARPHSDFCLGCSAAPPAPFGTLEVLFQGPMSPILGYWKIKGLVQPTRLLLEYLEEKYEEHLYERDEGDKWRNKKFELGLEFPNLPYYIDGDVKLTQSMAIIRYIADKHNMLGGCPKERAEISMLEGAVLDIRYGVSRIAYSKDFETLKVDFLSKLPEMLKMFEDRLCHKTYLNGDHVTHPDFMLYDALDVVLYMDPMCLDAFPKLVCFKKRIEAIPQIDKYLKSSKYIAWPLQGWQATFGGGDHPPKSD
Chain of His-SUMO-huFn14 (soluble human Fn14 aa 28-75 with N-terminal 6xHis-SUMO tag) (human) (chain, as listed by the source limits assumed): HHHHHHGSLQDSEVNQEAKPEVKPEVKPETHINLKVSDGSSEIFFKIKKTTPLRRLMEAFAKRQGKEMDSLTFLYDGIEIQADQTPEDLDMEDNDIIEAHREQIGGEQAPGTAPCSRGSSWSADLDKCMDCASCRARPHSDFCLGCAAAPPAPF
Chain of human Fn14 (full length) on cells (human) (Q9NP84 28-129): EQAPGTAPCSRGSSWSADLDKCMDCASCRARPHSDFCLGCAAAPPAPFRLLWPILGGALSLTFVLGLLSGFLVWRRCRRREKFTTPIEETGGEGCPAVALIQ

As a reminder, the Kd is the constant that tells how readily two partners part at equilibrium. A low value points to tighter binding. A word on the koff: it is a measure of how fast the partners let go of each other. Lower therefore signals slow dissociation. By kon is commonly meant the second-order rate constant of association. Low readings indicate slow association, high ones fast association. For the substance ITEM-4 Fab (enzymatic digest), the Kd in test [1] was 1.8 nM and 1.43 nM; in test [2], 1.39 nM and 1.21 nM; in test [3], 1.3 nM; in test [4], 1.62 nM. Further, the koff was 0.00304 s⁻¹ and 0.00279 s⁻¹ in test [1]; 0.00118 s⁻¹ and 0.00202 s⁻¹ in test [2]. Moreover, the kon in test [1] was 1.68e+06 M⁻¹ s⁻¹ and 1.94e+06 M⁻¹ s⁻¹; in test [2], 1.31e+06 M⁻¹ s⁻¹ and 1.68e+06 M⁻¹ s⁻¹.
mIgG2b isotype control antibody: the ICAM-1 MFI on HRMC, 250 ng/mL rhTWEAK, mAb 0.1 µg/mL in test [5] is 34700 MFI.
Consider mIgG1 isotype control antibody, for which the ICAM-1 MFI on HRMC, 250 ng/mL rhTWEAK, mAb 0.1 µg/mL in test [5] turned out to be 33300 MFI.
